Results taken from paper PMC12047801 (PLOS Pathogens, 2025).

Key:
[1] = target: USP7 (endogenous in SLK.iBAC-GFP cells) (human (endogenous in SLK.iBAC-GFP), UniProt Q93009 1-1102); assay: cell-based or functional assay
[2] = target: T1, Recombinant USP7-TRAF protein (human, UniProt Q93009 1-208); assay: SPR; Biacore T200; USP7-TRAF immobilised on a CM5 chip by amine coupling to about 8000 RU; gradient concentrations of peptides injected at 30 μL/min; running buffer 0.05% (v/v) Tween 20 in PBS; conditions: both partners purified
T1 construct: also called USP7-TRAF domain
T1 sequence (Q93009 1-208): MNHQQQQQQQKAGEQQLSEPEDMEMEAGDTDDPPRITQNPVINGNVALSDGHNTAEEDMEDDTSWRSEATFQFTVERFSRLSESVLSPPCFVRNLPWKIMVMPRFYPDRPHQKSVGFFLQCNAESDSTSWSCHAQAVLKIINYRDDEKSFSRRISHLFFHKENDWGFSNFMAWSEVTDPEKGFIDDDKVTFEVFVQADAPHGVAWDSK

GST-USP7-murine TRAF WT = target: T2, GST-USP7-murine TRAF WT (murine, UniProt Q6A4J8 1-208); assay: pull-down; conditions: both partners purified
T2 construct: also called GST-mUSP7-TRAF WT; murine USP7-TRAF
T2 sequence (Q6A4J8 1-208): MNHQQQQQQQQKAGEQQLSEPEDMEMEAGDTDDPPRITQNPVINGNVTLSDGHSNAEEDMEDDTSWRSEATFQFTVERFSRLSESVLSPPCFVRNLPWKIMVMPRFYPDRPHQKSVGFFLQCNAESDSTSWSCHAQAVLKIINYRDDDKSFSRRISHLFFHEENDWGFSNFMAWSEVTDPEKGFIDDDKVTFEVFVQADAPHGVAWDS

[3] = target: T1, Recombinant USP7-TRAF protein; assay: SPR; conditions: both partners purified

USP7 (endogenous in SLK.iBAC-GFP cells), sequence (Q93009 whole entry): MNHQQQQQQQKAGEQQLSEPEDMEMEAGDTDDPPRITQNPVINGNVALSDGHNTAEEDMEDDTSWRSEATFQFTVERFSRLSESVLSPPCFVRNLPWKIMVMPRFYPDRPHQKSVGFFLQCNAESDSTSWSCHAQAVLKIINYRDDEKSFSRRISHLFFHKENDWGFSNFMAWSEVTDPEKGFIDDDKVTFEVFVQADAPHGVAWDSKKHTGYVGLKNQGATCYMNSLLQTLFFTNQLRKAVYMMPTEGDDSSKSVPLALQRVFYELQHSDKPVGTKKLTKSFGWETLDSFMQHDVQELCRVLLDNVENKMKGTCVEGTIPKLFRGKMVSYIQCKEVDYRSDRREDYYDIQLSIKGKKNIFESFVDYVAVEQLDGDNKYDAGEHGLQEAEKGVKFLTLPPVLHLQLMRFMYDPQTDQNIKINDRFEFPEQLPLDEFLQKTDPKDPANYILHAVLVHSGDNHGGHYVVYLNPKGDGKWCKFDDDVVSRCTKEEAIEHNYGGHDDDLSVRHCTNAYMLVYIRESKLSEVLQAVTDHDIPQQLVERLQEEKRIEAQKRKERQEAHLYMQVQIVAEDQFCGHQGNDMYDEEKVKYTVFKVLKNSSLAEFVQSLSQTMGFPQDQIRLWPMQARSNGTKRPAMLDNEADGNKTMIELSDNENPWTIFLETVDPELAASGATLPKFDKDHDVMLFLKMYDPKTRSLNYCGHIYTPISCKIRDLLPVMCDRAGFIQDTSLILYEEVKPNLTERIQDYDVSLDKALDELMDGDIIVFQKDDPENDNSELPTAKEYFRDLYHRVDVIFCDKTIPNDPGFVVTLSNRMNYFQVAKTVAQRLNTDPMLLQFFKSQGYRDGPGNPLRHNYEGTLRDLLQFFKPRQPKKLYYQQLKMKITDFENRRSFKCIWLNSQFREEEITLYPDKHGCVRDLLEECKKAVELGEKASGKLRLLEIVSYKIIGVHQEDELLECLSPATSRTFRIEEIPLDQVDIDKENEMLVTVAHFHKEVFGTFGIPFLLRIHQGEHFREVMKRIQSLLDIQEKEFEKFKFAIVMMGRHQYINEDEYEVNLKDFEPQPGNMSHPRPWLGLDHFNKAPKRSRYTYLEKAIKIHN

Ac-YGRKKRRQRRRGGVNQSASQSSN-NH2 [p8 fused to an N-terminal Tat(47-57) peptide via a GG linker]
IC50 of inhibition of KSHV lytic reactivation in SLK.iBAC-GFP cells (blocks OTUD4-USP7) [1]: 52.6 µM

Ac-EVADEDNSEI-NH2 (also called peptide p2) [p2]
Kd [2]: 9.02 µM

Ac-YGRKKRRQRRRGGVSQSPSQNSN-NH2 (also called murine-derived p8) [p8-m]
binding result (GST-USP7-murine TRAF WT): binds

B1: p8 (peptide)
peptide: Ac-VNQSASQSSN-NH2
notes: also called peptide p8; human-derived p8
Kd [3]: 3.16 µM
